Experimental findings from US20050191302 are described below.

In the data set the target is recombinant TIMP-1 (Biogenesis, Poole, UK).

B1: recombinant human caspase-3 (Calbiochem) (protein)
chain: SGISLDNSYKMDYPEMGLCIIINNKNFHKSTGMTSRSGTDVDAANLRETFRNLKYEVRNKNDLTREEIVELMRDVSKEDHSKRSSFVCVLLSHGEEGIIFGTNGPVDLKKITNFFRGDRCRSLTGKPKLFIIQACRGTELDCGIETDSGVDDDMACHKIPVEADFLYAYSTAPGYYSWRNSKDGSWFIQSLCAMLKQYADKLEFMHILTRVNRKVATEFESFSFDATFHAKKQIPCIVSMLTKELYFYH
As for B1, the “caspase-3 activity (colorimetric substrate assay; recombinant caspase-3 incubated with TIMP-1 at 285-2850 ng/ml for 1 hour before the substrate was added)” value is given as “TIMP-1 did not reduce caspase-3 activity directly (data not shown)”.
